Test results: patent publication US20160083479A1 (AGENCY FOR SCIENCE TECHNOLOGY AND RESEARCH, published 2016)
No end group written: not given here. *: point of attachment. Biotin = O=C1N[C@H]2[C@H](CS[C@H]2CCCCC(=O)*)N1

Assays:
[1] = biological target: T1, peptide O27; experiment: Pepscan / alanine scan peptide ELISA on streptavidin plates, A450
T1 construct: Negative control peptide
T1 peptide: Biotin-SGSGQSEVHCIFSPQIEEP
Experimental: Variations of peptides O28 and O29, where each amino acid residue was sequentially substituted for an alanine residue, were synthesised. Streptavidin-coated plates (Pierce/Thermo Scientific, #15520) were blocked with 3% BSA/PBS at room temperature. The peptides were dissolved in DMSO and stored according to manufacturer's recommendation. Streptavidin-coated plates were coated with each peptide (5 μg/mL) overnight at room temperature. Wells were washed before hybridoma supernatant or purified monoclonal antibody was added to the each well. HRP-conjugated anti-mouse antibody was added to detect bound monoclonal antibodies. ELISA substrate (Bio-Rad #172-1067) solution was prepared freshly according to the manufacturer's instructions and added to the wells. Colour change was monitored by eye and the reaction was stopped by adding 100 mM sulphuric acid. Absorbance was read at 450 nm in a microplate reader (SPECTRAmax PLUS³⁸⁴, Molecular Device, U.S.A). The crystal structure of c-Met extracellular domain, accession number 1 SHY, was obtained from Protein Data Base (PDB). Computer imaging of the epitopes were analysed by PyMol (DeLano Scientific LLC, U.S.A) software.
Pepscan analysis was used to determine the region of c-Met α-chain bound by mAb 2. […] Binding of the antibody was detected by colorimetric assay and analysed by absorbance reading at […]. […]

[2] = biological target: T2, peptide P17; experiment: titration of purified mAb 2 against peptides, ELISA A450; rank order
T2 sequence (peptide, biotin at the N-terminus, linked by the SGSG linker): SGSGAIEEPSQCPDCVVSA

[3] = biological target: T3, peptide P9; experiment: as above
T3 sequence (peptide, biotin at the N-terminus, linked by the SGSG linker): SGSGCIFSPQIEAPSQCPD

[4] = biological target: T4, peptide P10; experiment: as above
T4 sequence (peptide, biotin at the N-terminus, linked by the SGSG linker): SGSGCIFSPQIEEASQCPD

[5] = biological target: peptide O28 (human); experiment: as above
[6] = biological target: T5, peptide P20; experiment: as above
T5 sequence (peptide, biotin at the N-terminus, linked by the SGSG linker): SGSGQIEAPSQCPDCVVSA

[7] = biological target: T6, peptide P15; experiment: as above
T6 sequence (peptide, biotin at the N-terminus, linked by the SGSG linker): SGSGCIFSPQIEEPSQCPA

[8] = biological target: T7, peptide P25; experiment: as above
T7 sequence (peptide, biotin at the N-terminus, linked by the SGSG linker): SGSGQIEEPSQCADCVVSA

[9] = biological target: T8, peptide P19; experiment: as above
T8 sequence (peptide, biotin at the N-terminus, linked by the SGSG linker): SGSGQIAEPSQCPDCVVSA

[10] = biological target: T9, peptide P7; experiment: as above
T9 sequence (peptide, biotin at the N-terminus, linked by the SGSG linker): SGSGCIFSPQAEEPSQCPD

B1: mAb 2 (antibody, IgG1, V domains shown)
VH: QVQLKESGGGLVQPGGSLTLSCATSGFTFTDHYMSWVRQPPGKALEWLAFIRNKAKGYTTEYNASVRGRFTISRDNSQNIVYLQMNTLRTEDSATYYCARDGVGIAYWGQGTLVTVSA
VL: SIVMTQSPLSLPVSLGDQASISCRSSQSLENINGNTYLNWYFQKPGQSPQLLIYRVSNRVSGVLDRFSGSGSGTDFTLKITRVEAEDLGVYFCLQVTHVPWTFGGGTKLEIK
notes: Murine monoclonal antibody purified from ascites (or hybridoma supernatant in the first Pepscan); constant regions are not; also called full length murine mAb 2
binding result [1]: no binding
Increase mAb 2 binding in ascending order (rank) [2]: 5
Increase mAb 2 binding in ascending order (rank) [3]: 4
Increase mAb 2 binding in ascending order (rank) [4]: 7
Increase mAb 2 binding in ascending order (rank) [5]: 11
Increase mAb 2 binding in ascending order (rank) [6]: 9
Increase mAb 2 binding in ascending order (rank) [7]: 10
Increase mAb 2 binding in ascending order (rank) [8]: 3
Increase mAb 2 binding in ascending order (rank) [9]: 6
Increase mAb 2 binding in ascending order (rank) [10]: 8
